How the values were obtained:
[1] = target: T1, human NR1-His protein (extracellular domain of human NR1 with linker, HisTag and AviTag) (human, UniProt Q05586 19-392); assay: competition ELISA on plate-coated human NR1-His protein; inhibition of the binding of biotin-labelled P003-102, streptavidin-HRP chemiluminescence
T1 construct: Expressed in Expi293F cells and purified from the supernatant; also called human NRA-His protein; human NR-His protein
Method: Specifically, 15 μL of the human NR1-His protein solution (1 μg/mL in Tris Buffered Saline (herein referred to as “TBS”)) was added to the 384 well plate (Thermo Fisher Scientific, 460372) and incubated overnight at 4° C. Then, the human NRA-His protein solution was removed and washed with 0.5% Tween-20 comprising TBS, NIPPON GENE, 310-07375 (referred to as “TBS-T”). After the wash, 50 uL of Blocking One (Nacalai Tesque, Inc., 03953-95) was added and incubated at room temperature for 1 hour or more.
After the wash, 15 μL is added to the HRP-labelled streptavidin (Funakoshi Co., Ltd., 21130) diluted 8,000 times using diluent, and incubated at room temperature for 30 minutes.

[2] = target: T1, human NR1-His protein (extracellular …); assay: SPR (Biacore T200), antibody captured by anti-human IgG on a CM5 chip, human NR1-His protein as analyte, 1:1 binding model
[3] = target: T2, human NMDAR (NR1/NR2B) on NMDAR expressing HEK cells (human, UniProt Q05586 19-938; Q13224 27-1484); assay: flow cytometry on NMDAR-expressing HEK cells, PE-labelled anti-human IgG, GeoMFI
T2 construct: whole, on cells; Commercial HEK cell line (Charles River Laboratories, CTN6121); The antibodies are directed against the NR1 subunit; also called cell surface NMDAR; NMDAR expressed in HEK cells
Method: The binding activity of the produced humanized one-armed anti-human NR1 monoclonal antibodies was evaluated in a flow cytometry trial using the NMDAR expressing HEK cell.
The NMDAR expressing HEK cells were induced overnight and collected. […] After staining, the cells were sedimented at 1,200 rpm for 5 minutes and the supernatant was removed. After adding 2% Dialyzed FBS to the cells, the cells were centrifuged and sedimented. After the supernatant was removed, the PE labeled anti-human IgG antibody (Jackson ImmunoResearch Laboratories, 109-116-098) was diluted 100 times with 2% Dialyzed FBS and added to cells for 30 minutes at 4° C. After staining, the cells were centrifuged and sedimented as described above. After removing the supernatant, the cells were suspended in 2% Dialyzed FBS and the steps after secondary staining were repeated. The flow cytometry (FACS Verse) was measured as described in Example 3. each antibody binds with the cell surface NMDAR from GeoMFI showing the PE Fluorescence intensity value was analyzed using FlowJo (Becton Dickinson, Ver. 10.0.8).

Row | IC50 (read off the curve) [1] [µg/mL] | Kd [2] [nM] | EC50 (read off the curve) [3] [µg/mL] | Binder
1 | ~2 | 0.878 |  | ABN-4, humanized one-armed anti-human NR1 antibody (antibody, human IgG1, kappa, L234A L235A) heavy: not shown light: DIQMTQSPSSLSASVGDRVTITCRPSENIYSNLAWYQQKPGKAPKLLVYAATNLADGVPSRFSGSGSGTDYTLTISSLQPEDIATYYCQHFWDSPPTFGQGTKLEIKRTVAAPSVFIFPPSDEQLKSGTASVVCLLNNFYPREAKVQWKVDNALQSGNSQESVTEQDSKDSTYSLSSTLTLSKADYEKHKVYACEVTHQGLSSPVTKSFNRGEC not shown
2 |  |  | ~0.8 | ABN-5, one-armed anti-human NR1 antibody derived from P003-102 (antibody, human IgG1, lambda, L234A L235A, Monovalent one-armed antibody made of one heavy chain (LALA; T366S, L368A, Y407V), one light chain and one Fc polypeptide) heavy: not shown light: NFMLTQPHSVSESPGKTVTISCTRSSGSIASNYVQWYQQRPGSAPTTVIYEDNQRPSGVPDRFSGSIDSSSNSASLTISGLKTEDEADYYCQSYDSSTVVFGGGTKLTVLGQPKANPTVTLFPPSSEELQANKATLVCLISDFYPGAVTVAWKADGSPVKAGVETTKPSKQSNNKYAASSYLSLTPEQWKSHRSYSCQVTHEGSTVEKTVAPTECS not shown
3 | ~0.3 |  | ~0.05 | ABN-2, humanized one-armed anti-human NR1 antibody (antibody, human IgG1, kappa, L234A L235A, also called ABN_178-m3) heavy: not shown light: DLQMTQSPSSLSASVGDRVTITCKASQDVNTAVAWYQQKPGKAPKLLIYWASTRHTGVPSRFSGSGSGTDYTLTISSLQPEDFATYYCQQHYSTPFTFGQGTKVEIKRTVAAPSVFIFPPSDEQLKSGTASVVCLLNNFYPREAKVQWKVDNALQSGNSQESVTEQDSKDSTYSLSSTLTLSKADYEKHKVYACEVTHQGLSSPVTKSFNRGEC not shown

Reference: patent US20230220070A1 (ARIALYS THERAPEUTICS, published 2023)
